# Data reported in patent US20240270821A1, “GIP/GLP1/GCG TRI-RECEPTOR AGONISTS AND USES THEREOF” (priority 2023, published 2024).
# Starred links: 1 amine or outer side, 2 acyl side, 3 side chain; linkers in the order of their positions; H or OH if unused. Non-standard residues stand in square brackets, D forms with d. Groups on a side chain read outwards from the residue. No end group written: not given here. *: point of attachment. C18 diacid = O=C(O)CCCCCCCCCCCCCCCCC(=O)*; γGlu = O=C(O)[C@H](CCC(=O)[*:2])N[*:1]; αMeL = CC(C)C[C@](C)(N)C(=O)O; Dap = NC[C@H](N)C(=O)O; AEEA = NCCOCCOCC(=O)O; Aib = CC(C)(N)C(=O)O
# T1: human GIP receptor (human) (UniProt P48546)
# T1 sequence (looked up): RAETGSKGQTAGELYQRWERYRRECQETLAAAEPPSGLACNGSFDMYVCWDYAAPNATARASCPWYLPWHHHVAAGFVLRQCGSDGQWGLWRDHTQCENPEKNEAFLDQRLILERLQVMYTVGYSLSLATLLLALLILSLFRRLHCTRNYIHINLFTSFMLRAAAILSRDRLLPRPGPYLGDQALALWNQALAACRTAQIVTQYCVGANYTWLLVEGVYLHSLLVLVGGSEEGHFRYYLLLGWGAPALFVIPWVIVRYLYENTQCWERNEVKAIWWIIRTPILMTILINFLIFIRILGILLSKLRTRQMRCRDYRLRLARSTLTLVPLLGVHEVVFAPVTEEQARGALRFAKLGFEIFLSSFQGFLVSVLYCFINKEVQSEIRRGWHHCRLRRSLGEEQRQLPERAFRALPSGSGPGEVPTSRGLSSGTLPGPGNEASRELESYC
# Columns and labels:
# Experiment in all cases: cell-based or functional assay
# hGLP-1R = hGLP-1R (Homo sapiens, UniProt P43220)
# Chain of hGLP-1R (P43220 24-463): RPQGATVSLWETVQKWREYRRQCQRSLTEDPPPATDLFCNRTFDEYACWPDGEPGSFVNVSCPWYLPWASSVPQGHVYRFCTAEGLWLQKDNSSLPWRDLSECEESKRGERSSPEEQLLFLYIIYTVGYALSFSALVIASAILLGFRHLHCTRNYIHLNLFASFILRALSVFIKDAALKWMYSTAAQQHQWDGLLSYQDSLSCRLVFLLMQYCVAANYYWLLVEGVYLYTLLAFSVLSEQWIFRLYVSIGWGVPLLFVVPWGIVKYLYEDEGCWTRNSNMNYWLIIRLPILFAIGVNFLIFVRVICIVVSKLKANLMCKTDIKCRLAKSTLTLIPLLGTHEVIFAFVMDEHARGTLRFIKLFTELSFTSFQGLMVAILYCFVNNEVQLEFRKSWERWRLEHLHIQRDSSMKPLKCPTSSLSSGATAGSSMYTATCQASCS
# [1] = molecular target: T1, human GIP receptor (human)
# [2] = molecular target: human GLP-1R (SNAP-GLP-1R expressed in HEK293 cells) (human) (UniProt P43220)
# Chain of human GLP-1R (SNAP-GLP-1R expressed in HEK293 cells) (human) (P43220 24-463): as above
# [3] = molecular target: human glucagon receptor (human) (UniProt P47871)
# Chain of human glucagon receptor (human) (P47871 26-477): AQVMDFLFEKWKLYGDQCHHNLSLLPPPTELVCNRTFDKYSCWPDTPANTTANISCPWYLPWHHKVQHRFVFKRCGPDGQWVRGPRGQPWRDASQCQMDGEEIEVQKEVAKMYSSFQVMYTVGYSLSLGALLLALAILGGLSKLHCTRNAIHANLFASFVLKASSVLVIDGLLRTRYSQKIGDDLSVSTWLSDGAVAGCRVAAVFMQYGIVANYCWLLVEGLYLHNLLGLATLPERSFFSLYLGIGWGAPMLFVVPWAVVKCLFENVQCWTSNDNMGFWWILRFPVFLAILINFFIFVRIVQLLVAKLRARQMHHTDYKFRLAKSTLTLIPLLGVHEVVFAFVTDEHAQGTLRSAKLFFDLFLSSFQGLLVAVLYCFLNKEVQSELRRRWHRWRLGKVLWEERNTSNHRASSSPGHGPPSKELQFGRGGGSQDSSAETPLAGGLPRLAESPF
Binder,Relative cAMP EC50 (hGLP-1R) [nM],"cAMP Rel EC50, nM (in the presence of 1% HSA) (hGLP-1R) [nM]",Relative cAMP EC50 [1] [nM],"cAMP Rel EC50, nM (in the presence of 1% HSA) [1] [nM]",GLP1R Internalization EC50 [2] [nM],Internalization % TOP [2] [%],Relative cAMP EC50 [3] [nM],"cAMP Rel EC50, nM (in the presence of 1% HSA) [3] [nM]","Relative cAMP EC50, nM (0.1% casein) (hGLP-1R) [nM]","cAMP Rel EC50, nM (1% HSA) (hGLP-1R) [nM]","Relative cAMP EC50, nM (0.1% casein) [1] [nM]","cAMP Rel EC50, nM (1% HSA) [1] [nM]","Relative cAMP EC50, nM (0.1% casein) [3] [nM]","cAMP Rel EC50, nM (1% HSA) [3] [nM]"
YXQGTFTSDXSRXLDKKAQXAFIEYLLEXGESSGAPPPSGS (synthetic construct; SITE 2: note = 2-Aminoisobutyric Acid; SITE 10: note = 3-(4-Pyridyl)-L-alanine; SITE 13: note = alpha-methyl-leucine; SITE 17: note = Lysine is chemically modified through conjugation of the epsilon-amino group of the Lysine side chain with (2-[2-(2-Amino-ethoxy)-ethoxy]-acetyl)) [Example 132],5.72,823,0.21,25.9,72.7,67.2,2.63,632,–,–,–,–,–,–
Y[Aib]QGTFTSDFS[Dap][αMeL]LDKK([AEEA-γGlu-C18 diacid])AQ[Aib]AFIEYLLE[Aib]GPSSGAPPPSGS-NH2 (ends and bridges not checked) [Example 134],3.36,549,0.152,38.3,67.9,22.3,7.28,1200,–,–,–,–,–,–
YXQGTFTSDFSXXLDKKAQXAFIEYLLEGGPSSGAPPPGES (synthetic construct; SITE 2: note = 2-Aminoisobutyric Acid; SITE 12: note = L-ornithine; SITE 13: note = alpha-methyl-leucine; SITE 17: note = Lysine is chemically modified through conjugation of the epsilon-amino group of the Lysine side chain with (2-[2-(2-Amino-ethoxy)-ethoxy]-acetyl)2-(gamma-Glu)) [Example 118],6.03,1450,0.43,63.4,82.3,46.4,7.02,2460,–,–,–,–,–,–
YXQGTFTSDFSKXLDKKAQXAFIEYLLEGGPSSGAPPPSGS (synthetic construct; SITE 2: note = 2-Aminoisobutyric Acid; SITE 13: note = alpha-methyl-leucine; SITE 17: note = Lysine is chemically modified through conjugation of the epsilon-amino group of the Lysine side chain with (2-[2-(2-Amino-ethoxy)-ethoxy]-acetyl)-(gamma-Glu)-CO-(CH2) 16-CO2H; SITE 20: n) [Example 141],1.96,562,0.21,62.1,95.3,64.1,1.77,877,–,–,–,–,–,–
YXQGTFTSDFSRXLDKKAQXAFIEYLLEGGPSSGAPPPSGS (synthetic construct; SITE 2: note = 2-Aminoisobutyric Acid; SITE 13: note = alpha-methyl-leucine; SITE 17: note = Lysine is chemically modified through conjugation of the epsilon-amino group of the Lysine side chain with (2-[2-(2-Amino-ethoxy)-ethoxy]-acetyl)-(gamma-Glu)-CO-(CH2) 16-CO2H; SITE 20: n) [Example 143],2.44,594,0.211,63.9,337,43,4.51,1690,–,–,–,–,–,–
YXQGTFTSDFSXXLDKKAQXAFIEWLLEGGPSSGAPXPSGE (synthetic construct; SITE 2: note = 2-Aminoisobutyric Acid; SITE 12: note = L-ornithine; SITE 13: note = alpha-methyl-leucine; SITE 17: note = Lysine is chemically modified through conjugation of the epsilon-amino group of the Lysine side chain with (2-[2-(2-Amino-ethoxy)-ethoxy]-acetyl)-(gamma-Glu)) [Example 137],3.18,447,0.269,23.7,60.2,47.7,4.43,905,–,–,–,–,–,–
YXQGTFTSDFSXXLDKKAQXAFIEWLLEGGPSSGAXPPSGE (synthetic construct; SITE 2: note = 2-Aminoisobutyric Acid; SITE 12: note = L-ornithine; SITE 13: note = alpha-methyl-leucine; SITE 17: note = Lysine is chemically modified through conjugation of the epsilon-amino group of the Lysine side chain with (2-[2-(2-Amino-ethoxy)-ethoxy]-acetyl)-(gamma-Glu)) [Example 136],3.8,625,0.221,32.9,36.1,37.8,8.73,960,–,–,–,–,–,–
YXQGTFTSDFSXXLDKKAQXAFIEWLLEGGHSSGAPPPEGS (synthetic construct; SITE 2: note = 2-Aminoisobutyric Acid; SITE 12: note = L-ornithine; SITE 13: note = alpha-methyl-leucine; SITE 17: note = Lysine is chemically modified through conjugation of the epsilon-amino group of the Lysine side chain with (2-[2-(2-Amino-ethoxy)-ethoxy]-acetyl)-(gamma-Glu)) [Example 126],3.97,838,0.264,40.3,63.2,38.8,6.81,1120,–,–,–,–,–,–
YXQGTFTSDFSXXLDKKAQXAFIEWLLEGGESSGAPPPEGS (synthetic construct; SITE 2: note = 2-Aminoisobutyric Acid; SITE 12: note = L-ornithine; SITE 13: note = alpha-methyl-leucine; SITE 17: note = Lysine is chemically modified through conjugation of the epsilon-amino group of the Lysine side chain with (2-[2-(2-Amino-ethoxy)-ethoxy]-acetyl)-(gamma-Glu)) [Example 125],4.12,1050,0.503,67.8,86.4,42.6,3.97,901,–,–,–,–,–,–
YXQGTFTSDFSXXLDKKAQXAFIEWLLEGGPSSGAPPPEGS (synthetic construct; SITE 2: note = 2-Aminoisobutyric Acid; SITE 12: note = L-ornithine; SITE 13: note = alpha-methyl-leucine; SITE 17: note = Lysine is chemically modified through conjugation of the epsilon-amino group of the Lysine side chain with (2-[2-(2-Amino-ethoxy)-ethoxy]-acetyl)-(gamma-Glu)) [Example 121],2.38,348,0.172,24.6,38.1,46.3,4.89,442,–,–,–,–,–,–
YXQGTFTSDFSXXLDKKAQXAFIEYLLEAGPSSGEPPPSGS (synthetic construct; SITE 2: note = 2-Aminoisobutyric Acid; SITE 12: note = L-ornithine; SITE 13: note = alpha-methyl-leucine; SITE 17: note = Lysine is chemically modified through conjugation of the epsilon-amino group of the Lysine side chain with (2-[2-(2-Amino-ethoxy)-ethoxy]-acetyl)2-(gamma-Glu)) [Example 155],–,–,–,–,85.1,54.5,–,–,2.98,503,0.177,18.9,5.68,1310
YXQGTFTSDFSXXLDKKAQXAFIEYLLEAGPSSGAPPPSGE (synthetic construct; SITE 2: note = 2-Aminoisobutyric Acid; SITE 12: note = L-ornithine; SITE 13: note = alpha-methyl-leucine; SITE 17: note = Lysine is chemically modified through conjugation of the epsilon-amino group of the Lysine side chain with (2-[2-(2-Amino-ethoxy)-ethoxy]-acetyl)-(gamma-Glu)) [Example 129],1.87,284,0.134,24.3,22.5,40.6,2.01,510,–,–,–,–,–,–
YXQGTFTSDFSRXLDKKAQXAFIEYLLEGGESSGAPPPSGS (synthetic construct; SITE 2: note = 2-Aminoisobutyric Acid; SITE 13: note = alpha-methyl-leucine; SITE 17: note = Lysine is chemically modified through conjugation of the epsilon-amino group of the Lysine side chain with (2-[2-(2-Amino-ethoxy)-ethoxy]-acetyl)-(gamma-Glu)-CO-(CH2) 16-CO2H; SITE 20: n) [Example 148],–,–,–,–,95.5,37.4,–,–,2.82,870,0.352,74.2,3.92,1330
YXQGTFTSDFSXXLDKKAQXAFIEWLLEGGHSSGAPPPSGE (synthetic construct; SITE 2: note = 2-Aminoisobutyric Acid; SITE 12: note = L-ornithine; SITE 13: note = alpha-methyl-leucine; SITE 17: note = Lysine is chemically modified through conjugation of the epsilon-amino group of the Lysine side chain with (2-[2-(2-Amino-ethoxy)-ethoxy]-acetyl)-(gamma-Glu)) [Example 122],3.93,468,0.189,32.6,57.4,43.7,3.95,548,–,–,–,–,–,–
YXQGTFTSDFSQXLDKKAQXAFIEYLLEXGPSSGAPPPSGS (synthetic construct; SITE 2: note = 2-Aminoisobutyric Acid; SITE 13: note = alpha-methyl-leucine; SITE 17: note = Lysine is chemically modified through conjugation of the epsilon-amino group of the Lysine side chain with (2-[2-(2-Amino-ethoxy)-ethoxy]-acetyl)-(gamma-Glu)-CO-(CH2) 16-CO2H; SITE 20: n) [Example 151],–,–,–,–,77.8,55,–,–,1.6,384,0.0784,14.9,3.5,1420
YXQGTFTSDXSXXLDKKAQXAFIEYLLAGGPSSGEPPPSGS (synthetic construct; SITE 2: note = 2-Aminoisobutyric Acid; SITE 10: note = 3-(4-Pyridyl)-L-alanine; SITE 12: note = L-ornithine; SITE 13: note = alpha-methyl-leucine; SITE 17: note = Lysine is chemically modified through conjugation of the epsilon-amino group of the Lysine side chain with (2-[2-(2-) [Example 154],–,–,–,–,47.7,65.9,–,–,4.94,569,0.227,29.7,8.72,1040
